Reference: patent publication US20240376170A1 (BRIGHT PEAK THERAPEUTICS, published 2024)
Each block holds one binder with its values, some of them ahead of it. Bridges are numbered along the chain shown (N, C = ends). Primed or numbered codes have the meaning given here. [ ]: non-standard residue; d: D form. Ygp = O-(8x polyethylene glycol-amino)-tyrosine (Tyr, amino-capped PEG8); Yn3 = O-(9x polyethylene glycol-azido)-tyrosine (Tyr, azide-capped PEG9); Ygp″ = O-(8x polyethylene glycol-amino)-tyrosine; Yn3″ = O-(9x polyethylene glycol-azido)-tyrosine; hSer = N[C@@H](CCO)C(=O)O; Nle = CCCC[C@H](N)C(=O)O

Experiments:
[1] = target: T1, recombinant human IL-2 receptor beta containing a His-tag and Avi-tag (human, UniProt P14784 27-239); assay: BLI (Octet R8), receptor on SAX2 sensor
T1 construct: Bought; attached to the SAX2 biosensor; also called CD122; IL-2R β; not shown: His-tag and Avi-tag
T1 sequence (looked up): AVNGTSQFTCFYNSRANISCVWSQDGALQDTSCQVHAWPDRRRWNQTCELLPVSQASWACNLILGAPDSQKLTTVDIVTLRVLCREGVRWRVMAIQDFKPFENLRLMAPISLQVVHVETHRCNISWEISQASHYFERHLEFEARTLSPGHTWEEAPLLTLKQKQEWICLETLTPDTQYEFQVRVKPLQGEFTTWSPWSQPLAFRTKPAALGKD
In short: (§1)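 Receptor immobilized on SAX2 biosensors; analytes (intact or MMP2-cleaved activatable IL-2 constructs) started at 300 nM and serially diluted in Kinetic buffer or PBS with 0.02% Tween 20 and 0.1% BSA. Binding constants measured by biolayer interferometry; sensors regenerated with 10 mM glycine pH 2.7 between runs.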

[2] = target: T2, Avi-tag Fc with human IL-2R beta and IL-2R gamma attached (Acrobiosystems ACRB-ILG-H82F3-25UG) (human, UniProt P14784 27-239; P31785 23-262); assay: BLI (Octet R8), receptor on SAX2 sensor
T2 construct: Bought; attached to the SAX2 biosensor; also called CD122 CD132; IL-2R βγ; not shown: Fc and Avi-tag
T2 sequence (looked up) 1: T1 sequence (looked up)
T2 sequence (looked up) 2: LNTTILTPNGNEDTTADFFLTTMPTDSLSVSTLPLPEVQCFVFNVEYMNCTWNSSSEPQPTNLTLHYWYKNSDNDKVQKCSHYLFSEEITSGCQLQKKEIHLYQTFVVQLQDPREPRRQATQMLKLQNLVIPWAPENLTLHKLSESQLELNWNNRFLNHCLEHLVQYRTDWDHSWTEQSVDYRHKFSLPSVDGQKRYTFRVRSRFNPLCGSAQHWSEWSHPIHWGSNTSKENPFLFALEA
In short: as §1

[3] = target: T1, recombinant human IL-2 receptor beta …; assay: BLI (Octet R8), receptor on SAX2 sensor; CMP-166 treated with MMP2 (cleaved)
Procedure: (§2) Bilayer interferometry (BLI) assays were used to measure the binding constants between activatable IL-2 polypeptides (and activated versions thereof) to IL-2 receptor subunits or receptor complexes. BLI assays were conducted on an Octet® R8 instrument. Assay plates were 96 well, polypropylene, F-bottom (chimney well), black microplates (Greiner Bio-one, Cat. No: 655209). The biosensors were Octet® SAX2 (Sartorius, Cat. No: 18-5136). The assay buffer was 1X Kinetic Buffer (Sartorius, Cat. no: 18-5136) or Phosphate Buffered Saline (PBS) that contained 0.02% (v: v) Tween 20 (Polysorbate 20) and 0.1% (w/v) bovine serum albumin (BSA). The sensor was regenerated between measurements in 10 mM glycine pH 2.7 buffer.
(§3) Sensor attached receptors were either recombinant human IL-2 receptor beta containing a His-tag and Avi-tag™ (R&D Systems™) or an Avi-tag™ Fc with human IL-2R beta and IL-2R gamma attached (Acrobiosystems Cat. no: ACRB-ILG-H₈₂F3-25UG). Receptors were reconstituted from lyophilized powder to 500 μg/ml in PBS. Analytes were diluted in Kinetic buffer to 300 nM, then serially diluted to lower concentrations.

[4] = target: T2, Avi-tag Fc with human IL-2R beta and …; assay: as above
Procedure: as §2, §3

[5] = target: T1, recombinant human IL-2 receptor beta …; assay: BLI (Octet R8), receptor on SAX2 sensor; CMP-165 treated with MMP2 (cleaved)
Procedure: as §2, §3

[6] = target: T2, Avi-tag Fc with human IL-2R beta and …; assay: as above
Procedure: as §2, §3

[7] = target: T1, recombinant human IL-2 receptor beta …; assay: BLI (Octet R8), receptor on SAX2 sensor; construct CMP-165, intact (no MMP2)
Procedure: as §2, §3

[8] = target: T2, Avi-tag Fc with human IL-2R beta and …; assay: as above
Procedure: as §2, §3

[9] = target: T1, recombinant human IL-2 receptor beta …; assay: BLI (Octet R8), receptor on SAX2 sensor; construct CMP-168, intact (no MMP2)
Procedure: as §2, §3

[10] = target: T1, recombinant human IL-2 receptor beta …; assay: BLI (Octet R8), receptor on SAX2 sensor; CMP-168 treated with MMP2 (cleaved)
Procedure: as §2, §3

[11] = target: T1, recombinant human IL-2 receptor beta …; assay: BLI (Octet R8), receptor on SAX2 sensor; construct CMP-166, intact (no MMP2)
Procedure: as §2, §3

[12] = target: T2, Avi-tag Fc with human IL-2R beta and …; assay: as above
Procedure: as §2, §3

[13] = target: T1, recombinant human IL-2 receptor beta …; assay: BLI (Octet R8), receptor on SAX2 sensor; CMP-167 treated with MMP2 (cleaved)
Procedure: as §2, §3

[14] = target: T2, Avi-tag Fc with human IL-2R beta and …; assay: as above
Procedure: as §2, §3

[15] = target: T1, recombinant human IL-2 receptor beta …; assay: BLI (Octet R8), receptor on SAX2 sensor; construct CMP-167, intact (no MMP2)
Procedure: as §2, §3

[16] = target: T2, Avi-tag Fc with human IL-2R beta and …; assay: as above
Procedure: as §2, §3

koff [2]: 0.0022 s⁻¹
Kd [9]: 25.1 µM
B4: CMP-168 (ligand)
chain: APTSSSTKKTQLQLEHLLLDLQEILNGINNYKNPKLTR[Nle]L[hSer][Yn3″]KF[Ygp″][Nle]PKKATELKHLQCLEEELKPLEEVL[hSer]LAQSKNFHLRPRDLISNINVIVLELKGSETTF[hSer]CEYADETATIVEFLNRWITFSQSIISTLT
modifications: bridge 9-23; not fully specified (bridges); ends not checked

koff [1]: 1.08 s⁻¹
kon [1]: 789 M⁻¹ s⁻¹
Kd [2]: 0.00227 µM
koff [2]: 0.00164 s⁻¹
kon [2]: 602000 M⁻¹ s⁻¹
Kd [10]: 1370 µM
B5: CMP-168, MMP2 cleaved (ligand)
chain: APTSSSTKKTQLQLEHLLLDLQEILNGINNYKNPKLTR[Nle]L[hSer][Yn3″]KF[Ygp″][Nle]PKKATELKHLQCLEEELKPLEEVL[hSer]LAQSKNFHLRPRDLISNINVIVLELKGSETTF[hSer]CEYADETATIVEFLNRWITFSQSIISTLT
modifications: ends and bridges not checked; also: MMP2 cleaved, ring opened, cut site and remnants not given here
notes: Tested after MMP2 treatment

koff [1]: 0.227 s⁻¹
kon [1]: 345000 M⁻¹ s⁻¹
koff [2]: 0.000923 s⁻¹
kon [2]: 594000 M⁻¹ s⁻¹
Kd [13]: 0.658 µM
Kd [14]: 0.00155 µM
B7: CMP-167, MMP2 cleaved (ligand)
chain: APTSSSTKKTQLQLEHLLLDLQKILNGINNYKNPKLTR[Nle]L[hSer][Yn3″]KF[Ygp″][Nle]PKKATELKHLQCLEEELKPLEEVL[hSer]LAQSKNFHLRPRDLISNINVIVLELKGSETTF[hSer]CEYADETATIVEFLNRWITFSQSIISTLT
modifications: ends and bridges not checked; also: MMP2 cleaved, ring opened, cut site and remnants not given here
notes: Tested after MMP2 treatment

koff [1]: 0.993 s⁻¹
Kd [15]: 0.215 µM
Kd [16]: 0.0238 µM
B8: CMP-167 (ligand)
chain: APTSSSTKKTQLQLEHLLLDLQKILNGINNYKNPKLTR[Nle]L[hSer][Yn3]KF[Ygp][Nle]PKKATELKHLQCLEEELKPLEEVL[hSer]LAQSKNFHLRPRDLISNINVIVLELKGSETTF[hSer]CEYADETATIVEFLNRWITFSQSIISTLT
modifications: bridge N-23; not fully specified (bridges); ends not checked

Continued, binder first:

B1: CMP-166, MMP2 cleaved (ligand)
chain: APTSSSTKKTQLQLEHLLLDLQKILNGINNYKNPKLTR[Nle]L[hSer][Yn3]KF[Ygp][Nle]PKKATELKHLQCLEEELKPLEEVL[hSer]LAQSKNFHLRPRDLISNINVIVLELKGSETTF[hSer]CEYADETATIVEFLNRWITFSQSIISTLT
modifications: also: glutaryl-PEG4-peptide bridge Ala1 to Lys23 cut by MMP2, site not given here, ring opened
notes: Tested after MMP2 treatment
koff [1]: 0.225 s⁻¹
kon [1]: 283000 M⁻¹ s⁻¹
koff [2]: 0.000684 s⁻¹
kon [2]: 567000 M⁻¹ s⁻¹
Kd [3]: 0.794 µM
Kd [4]: 0.00121 µM

B2: CMP-165, MMP2 cleaved (ligand)
chain: APTSSSTKKTQLQLEHLLLDLQKILNGINNYKNPKLTR[Nle]L[hSer][Yn3]KF[Ygp][Nle]PKKATELKHLQCLEEELKPLEEVL[hSer]LAQSKNFHLRPRDLISNINVIVLELKGSETTF[hSer]CEYADETATIVEFLNRWITFSQSIISTLT
modifications: also: glutaryl-peptide bridge Ala1 to Lys23 cut by MMP2, site not given here, ring opened
notes: Tested after MMP2 treatment
koff [1]: 0.237 s⁻¹
kon [1]: 213000 M⁻¹ s⁻¹
koff [2]: 0.00114 s⁻¹
kon [2]: 608000 M⁻¹ s⁻¹
Kd [5]: 1.11 µM
Kd [6]: 0.00187 µM

B3: CMP-165 (ligand)
chain: APTSSSTKKTQLQLEHLLLDLQKILNGINNYKNPKLTR[Nle]L[hSer][Yn3]KF[Ygp][Nle]PKKATELKHLQCLEEELKPLEEVL[hSer]LAQSKNFHLRPRDLISNINVIVLELKGSETTF[hSer]CEYADETATIVEFLNRWITFSQSIISTLT
modifications: bridge N-23; not fully specified (bridges); ends not checked; also: sequence of the cleavable peptide in the bridge not given here
koff [1]: 0.633 s⁻¹
Kd [7]: 44.2 µM
Kd [8]: 0.0261 nM

B6: CMP-166 (ligand)
chain: APTSSSTKKTQLQLEHLLLDLQKILNGINNYKNPKLTR[Nle]L[hSer][Yn3]KF[Ygp][Nle]PKKATELKHLQCLEEELKPLEEVL[hSer]LAQSKNFHLRPRDLISNINVIVLELKGSETTF[hSer]CEYADETATIVEFLNRWITFSQSIISTLT
modifications: bridge N-23; not fully specified (bridges); ends not checked; also: sequence of the cleavable peptide in the bridge not given here
koff [1]: 0.613 s⁻¹
Kd [11]: 0.614 µM
Kd [12]: 0.0161 µM
